One molecule from publication PMC10679500, “Posttranslational modification and heme cavity architecture of human eosinophil peroxidase—insights from first crystal structure and biochemical characterization” (The Journal of Biological Chemistry, 2023) can be followed below.

The test addresses T1, eosinophil peroxidase heavy chain (human, UniProt P11678 251-715, Glu380 ester-linked to the heme cofactor (hydroxymethyl group on pyrrole ring A); N-glycans at Asn327 and Asn363).
T1 construct: human eosinophil peroxidase (EPO), C-terminal heavy chain of the mature enzyme; G250/V251-T715; N-terminus heterogeneous (G250 or V251); first resolved residue in the crystal is Val251; One of the two polypeptides of mature leukocyte EPO; part of the sample may begin at G250; A mixture of glycoforms was crystallized; also called EPO H-chain; HC
T1 sequence (looked up): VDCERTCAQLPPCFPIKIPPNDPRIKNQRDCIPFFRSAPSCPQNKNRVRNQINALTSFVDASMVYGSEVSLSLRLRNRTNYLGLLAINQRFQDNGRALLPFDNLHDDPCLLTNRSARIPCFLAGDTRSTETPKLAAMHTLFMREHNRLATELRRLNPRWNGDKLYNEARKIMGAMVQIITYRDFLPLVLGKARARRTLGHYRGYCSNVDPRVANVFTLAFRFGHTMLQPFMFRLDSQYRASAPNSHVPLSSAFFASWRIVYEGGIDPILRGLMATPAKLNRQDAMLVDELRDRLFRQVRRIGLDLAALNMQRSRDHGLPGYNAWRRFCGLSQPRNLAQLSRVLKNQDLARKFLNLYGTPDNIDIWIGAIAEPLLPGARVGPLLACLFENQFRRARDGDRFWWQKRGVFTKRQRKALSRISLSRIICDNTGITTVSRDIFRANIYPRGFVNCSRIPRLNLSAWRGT
The experiment in a line: crystal structure; mixture of EPO glycoforms from human leukocytes, 10 mg/ml in 5 mM phosphate pH 7.0; crystallized in 0.2 M trisodium citrate pH 4.1, 20% (w/v) PEG, vapor diffusion, 22 °C; 1.6 Å; one monomer per asymmetric unit. The note with it: both partners purified.

B1: eosinophil peroxidase light chain (domain or fragment)
chain: not shown
modifications: Asp232 ester-linked to the heme cofactor (hydroxymethyl group on pyrrole ring C)
notes: human eosinophil peroxidase (EPO), N-terminal light chain of the mature enzyme after removal of signal peptide, propeptide (18-139) and the peptide V/AFTA/G; R140-R244/V245; C-terminus heterogeneous by MS (77.2% arginine, 23.8% valine as terminal residue); last resolved residue in the crystal is Arg244; One of the two polypeptides of mature leukocyte EPO; a minor part of the sample ends at V245; …
As for B1, the binding result was “binds”.
